Where two headings read alike, the source gives them in different places. No end group written: not given here.
Assays:
[1] = target: T1, Recombinant Human Fas/TNFRSF6/Fc Chimera (human, UniProt P25445 26-173); experiment: ELISA, peptide coated, Fas/Fc added
T1 construct: also called FasR; Fas receptor; Fc part of the bought chimera not given
T1 sequence (looked up): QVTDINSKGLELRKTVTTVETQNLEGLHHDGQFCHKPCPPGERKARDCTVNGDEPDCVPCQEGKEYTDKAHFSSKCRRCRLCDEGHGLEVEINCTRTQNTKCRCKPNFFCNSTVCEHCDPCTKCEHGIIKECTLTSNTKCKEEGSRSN
Protocol: (§1) ELISA. Peptides were dissolved in a coating buffer solution (0.05M Sodium Carbonate, 0.02% Sodium Azide, pH=9.6) at the appropriate concentrations to a final concentration of 10 μM. Dilutions were made accordingly to reach desired experimental concentrations. 100 μl aliquots of the peptide solution was added to each well and incubated for 2 hours. All incubations were carried out with shaking at T=37° C. Wells were washed by pipetting solution out of each well, adding 200 μL of washing solution (PBS-Tween; 0.5%), shaking for 15 minutes and emptying each well. Three wash cycles were carried out prior to addition of 200 μL of blocking solution (1% BSA in PBS buffer) to each well followed by incubation for 2 hours. Wells were then washed (as per above procedure) three times. Protein solutions of the appropriate concentrations (Vₛₒₗᵤₜᵢₒₙ 50 μL) were then added and incubated for 2 hours. After washing three times (as per above protocol) Fas specific antibody solution (˜1:20,000) was added to each well in 100 μL aliquots and incubated for 1 hour. After washing three times (as per above protocol) IgM-HRP solution (˜1:20,000) was added to each well in 100 μL aliquots and incubated (with shaking) for 1 hour at T=37° C. Wells were washed three times prior to the addition of ready-to-use TMD, followed by incubation for 30 minutes. 2M H₂SO₄ (3 drops) was added to stop colorimetric reaction and the absorption was taken at 450 nm on a Perkin-Elmer, Victor3 Model automated plate reader. Data was analyzed using standard regression fits in Excel.
Effect of Flanking Residues on Binding Affinities. […] While this work has shown that tetrapeptides based from the original protein sequence can inhibit the FasL/FasR cell death pathway at low nM concentrations, the ability to improve upon this was examined by looking at the extended sequence on both the N-terminal and C-terminal side of the YLGA (SEQ ID NO:1) motif. Peptides up to 12 amino acids in length were synthesized based on the α-Met sequence and their Kₐ values measured for the Fas receptor, Table 7.

[2] = target: T2, Fas receptor on Jurkat cells (UniProt P25445 26-335, limits assumed); experiment: cell-based or functional assay
T2 sequence (looked up): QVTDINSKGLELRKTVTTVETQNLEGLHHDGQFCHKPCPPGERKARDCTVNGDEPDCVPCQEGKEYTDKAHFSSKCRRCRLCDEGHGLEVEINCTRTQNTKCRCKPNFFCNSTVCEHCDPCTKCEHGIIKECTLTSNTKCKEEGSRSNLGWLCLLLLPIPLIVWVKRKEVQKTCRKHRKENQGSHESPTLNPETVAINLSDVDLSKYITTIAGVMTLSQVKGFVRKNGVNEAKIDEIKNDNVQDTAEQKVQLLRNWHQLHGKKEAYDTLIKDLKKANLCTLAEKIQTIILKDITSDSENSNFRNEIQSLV

[3] = target: T2, Fas receptor on Jurkat cells; experiment: cell-based or functional assay; remark: listed apart in the source
[4] = target: TNFR1; experiment: cell-based or functional assay
[5] = target: T3, TNFR1; experiment: method for TNFR not described
T3 construct: The same entry is used for the Kd and for the EC50 rows
T3 sequence (P19438 whole entry): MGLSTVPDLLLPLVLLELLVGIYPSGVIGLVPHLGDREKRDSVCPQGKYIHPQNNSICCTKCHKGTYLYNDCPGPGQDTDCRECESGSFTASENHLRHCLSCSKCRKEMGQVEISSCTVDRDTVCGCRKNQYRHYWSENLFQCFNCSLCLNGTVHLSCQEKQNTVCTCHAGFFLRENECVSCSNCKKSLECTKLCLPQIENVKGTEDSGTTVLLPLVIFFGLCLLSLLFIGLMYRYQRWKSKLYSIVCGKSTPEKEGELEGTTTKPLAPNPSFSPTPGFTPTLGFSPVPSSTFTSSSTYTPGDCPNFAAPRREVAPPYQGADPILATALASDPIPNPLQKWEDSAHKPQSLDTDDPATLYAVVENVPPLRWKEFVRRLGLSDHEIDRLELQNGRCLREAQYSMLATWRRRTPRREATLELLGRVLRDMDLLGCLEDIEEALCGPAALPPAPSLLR

[6] = target: T1, Recombinant Human Fas/TNFRSF6/Fc Chimera; experiment: ELISA, peptide coated, Fas/Fc added; remark: listed apart in the source
Protocol: as §1
(§2) Effect of Amino Acid Substitution on Binding Affinities. […] In the first series of peptides, alterations were made only to the tyrosine residue while retaining the final three amino acids homologous in the parent sequence (LGA).

[7] = target: T1, Recombinant Human Fas/TNFRSF6/Fc Chimera; experiment: ELISA, peptide coated, Fas/Fc added; remark: listed apart in the source
Protocol: as §1, §2

[8] = target: T1, Recombinant Human Fas/TNFRSF6/Fc Chimera; experiment: ELISA, peptide coated, Fas/Fc added; remark: listed apart in the source
Protocol: as §1, §2

[9] = target: T1, Recombinant Human Fas/TNFRSF6/Fc Chimera; experiment: ELISA, peptide coated, Fas/Fc added; remark: listed apart in the source
Protocol: as §1, §2

[10] = target: T1, Recombinant Human Fas/TNFRSF6/Fc Chimera; experiment: ELISA, peptide coated, Fas/Fc added; remark: listed apart in the source
Protocol: as §1, §2

[11] = target: T1, Recombinant Human Fas/TNFRSF6/Fc Chimera; experiment: ELISA, peptide coated, Fas/Fc added; remark: listed apart in the source
Protocol: as §1, with “After washing three times (as per above protocol) IgM-HRP solution (˜1:20,000) was added to each well in 100 μL aliquots and incubated (with shaking) for 1 hour at T=37° C.” left out

B1: HHI YLG ATN YI (peptide)
peptide: HHIYLGATNYI
Ka [1]: 3e+08 M⁻¹

B2: HHI YLG ATN YIY (peptide)
peptide: HHIYLGATNYIY
Ka [1]: 3e+08 M⁻¹

B3: HHI YLG A (peptide)
peptide: HHIYLGA
Ka [1]: 3e+08 M⁻¹

B4: HHI YLG AT (peptide)
peptide: HHIYLGAT
Ka [1]: 3e+08 M⁻¹

B5: I YLG ATN YIY (peptide)
peptide: IYLGATNYIY
Ka [1]: 3e+08 M⁻¹

B6: YLGA (peptide)
peptide: YLGA
modifications: not fully specified
notes: Synthetic peptide; also called original tyrosine peptide
EC50 (nM), cell viability of Jurkat cells exposed to recombinant FasL [2]: 6 nM | EC50 (FasR) [3]: 6 nM | EC50 (TNFR) [4]: 11 nM | Kd [5]: 6 nM | Ka [6]: 2e+08 M⁻¹ | Ka [7]: 2e+08 M⁻¹ | Ka [8]: 2e+08 M⁻¹ | Ka [9]: 2e+08 M⁻¹ | Ka [10]: 2e+08 M⁻¹ | Kd [10]: 5 nM | Kd [11]: 5 nM

B7: YLIA (peptide)
peptide: YLIA
binding result [8]: no binding (tested: concentration range of 1 nM to 1 µM)

B8: YVGA (peptide)
peptide: YVGA
Ka [7]: 2e+08 M⁻¹

B9: YLGL (peptide)
peptide: YLGL
times less affinity than YLGA [6]: ~10 times | Ka [9]: 3e+07 M⁻¹

B10: YLAA (peptide)
peptide: YLAA
fold decrease in Ka [6]: 20 fold | Ka [8]: 1e+06 M⁻¹

B11: WLGA (peptide)
peptide: WLGA
Ka [6]: 8e+07 M⁻¹ | Ka [10]: 8e+07 M⁻¹ | Kd [10]: 13 nM

B12: ELGA (peptide)
peptide: ELGA
Ka [6]: 5e+07 M⁻¹ | fold drop off against YLGA [6]: 4 fold

B13: KLGA (peptide)
peptide: KLGA
Ka [6]: 8e+06 M⁻¹

B14: YLGT (peptide)
peptide: YLGT
binding result [9]: no binding (tested: concentration range of 1 nM to 1 µM)

B15: SLGA (peptide)
peptide: SLGA
EC50 (nM), cell viability of Jurkat cells exposed to recombinant FasL [2]: 6 nM | Ka [6]: 2e+08 M⁻¹ | Ka [10]: 2e+08 M⁻¹ | Kd [10]: 5 nM

B16: YLLA (peptide)
peptide: YLLA
fold decrease in Ka [6]: 20 fold | Ka [8]: 1e+06 M⁻¹

B17: TLGA (peptide)
peptide: TLGA
Ka [6]: 2e+08 M⁻¹

B18: ILGA (peptide)
peptide: ILGA
Ka [6]: 9e+06 M⁻¹

B19: YFGA (peptide)
peptide: YFGA
binding result [7]: no binding (tested: concentration range of 1 nM to 1 µM)

B20: YLGG (peptide)
peptide: YLGG
EC50 (nM), cell viability of Jurkat cells exposed to recombinant FasL [2]: 52 nM | EC50 (FasR) [3]: 52 nM | EC50 (TNFR) [4]: 8 nM | Kd [5]: 4 nM | times less affinity than YLGA [6]: ~10 times | Ka [9]: 4e+07 M⁻¹ | Ka [10]: 4e+07 M⁻¹ | Kd [10]: 28 nM | Kd [11]: 28 nM

B21: FLGA (peptide)
peptide: FLGA
Ka [6]: 1e+08 M⁻¹ | Ka [10]: 1e+08 M⁻¹ | Kd [10]: 10 nM

B22: YGGA (peptide)
peptide: YGGA
fold decrease in Ka [6]: 20 fold | Ka [7]: 1e+07 M⁻¹

B23: ALGA (peptide)
peptide: ALGA
binding result [6]: no binding (tested: concentration range of 1 nM to 1 µM)

B24: YAGA (peptide)
peptide: YAGA
EC50 (nM), cell viability of Jurkat cells exposed to recombinant FasL [2]: 6 nM | Ka [7]: 3e+08 M⁻¹ | Ka [10]: 3e+08 M⁻¹ | Kd [10]: 4 nM

B25: GLGA (peptide)
peptide: GLGA
binding result [6]: no binding (tested: concentration range of 1 nM to 1 µM)

B26: YTGA (peptide)
peptide: YTGA
binding result [7]: no binding (tested: concentration range of 1 nM to 1 µM)

B27: YLGI (peptide)
peptide: YLGI
times less affinity than YLGA [6]: ~10 times | Ka [9]: 3e+07 M⁻¹

B28: YIGA (peptide)
peptide: YIGA
Ka [7]: 2e+08 M⁻¹

B29: DLGA (peptide)
peptide: DLGA
Ka [6]: 5e+07 M⁻¹ | fold drop off against YLGA [6]: 4 fold

B30: LLGA (peptide)
peptide: LLGA
EC50 (nM), cell viability of Jurkat cells exposed to recombinant FasL [2]: 93 nM | Ka [6]: 1e+07 M⁻¹ | Ka [10]: 1e+07 M⁻¹ | Kd [10]: 88 nM

B31: HHI YLG ATN (peptide)
peptide: HHIYLGATN
Ka [1]: 3e+08 M⁻¹

B32: HI YLG ATN YIY (peptide)
peptide: HIYLGATNYIY
Ka [1]: 3e+08 M⁻¹

B33: YLG ATN YIY (peptide)
peptide: YLGATNYIY
Ka [1]: 3e+08 M⁻¹

B34: HHI YLG ATN Y (peptide)
peptide: HHIYLGATNY
Ka [1]: 3e+08 M⁻¹

Reference: patent US20080280834A1 (UNIVERSITY OF PITTSBURGH OF THE COMMONWEALTH SYSTEM OF …, published 2008)
